Earlier results as cited in paper PMC9971567.

Molecular target: Intimin C terminus (Escherichia coli) (UniProt P19809)
UniProt P19809, sequence (P19809 660-939): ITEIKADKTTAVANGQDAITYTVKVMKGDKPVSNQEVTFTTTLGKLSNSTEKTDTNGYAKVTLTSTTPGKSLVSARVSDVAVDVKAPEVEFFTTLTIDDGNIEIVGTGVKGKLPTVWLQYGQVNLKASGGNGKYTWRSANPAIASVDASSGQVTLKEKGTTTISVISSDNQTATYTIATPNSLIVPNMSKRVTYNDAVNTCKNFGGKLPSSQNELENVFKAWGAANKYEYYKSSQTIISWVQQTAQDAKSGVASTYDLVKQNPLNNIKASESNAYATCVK

Which Kd does the source give for Tir central loop (from UniProt B7UM99) here?
Its Kd is 10 nM.
